Where two headings read alike, the source gives them in different places.

Broadly, the koff is a measure of how fast the partners let go of each other.

For experiment [1], the target named is TDP-43 C-terminal domain (residues 267-414), wild type (human) (UniProt Q13148). Put plainly: 15N CPMG relaxation dispersion NMR.
Experiment [2] has the same target. The experiment in a line: 15N CPMG relaxation dispersion NMR. The source holds these as a separate data set.
Experiment [3] deals with TDP-43 C-terminal domain (residues 267-414) M337V (human) (UniProt Q13148).

With “TDP-43 C-terminal domain (residues 267-414), wild type (from UniProt Q13148 267-414) (domain or fragment)”, in experiment [1], the kex (kon + koff, global exchange rate) stood at 1200 s⁻¹ and the koff stood at 1100 s⁻¹. Also, in experiment [2], the kex (kon + koff, global exchange rate) came out at 1000 s⁻¹ and the koff came to 970 s⁻¹.
Take “TDP-43 C-terminal domain (residues 267-414) M337V (from UniProt Q13148 267-414) (domain or fragment)”: the decrease of turbidity of 20 µM CTD in 150 mM NaCl against wild type in experiment [3] was 50%.
